Assay results taken from patent US20120114557A1.
Bridge positions count the residues as written; N and C are the ends. Square brackets hold non-standard residues; d marks the D form. Ends that are not written are not given here. NMeA = CN[C@@H](C)C(=O)O; Sar = CNCC(=O)O

B1: SEQ ID NO: 181 (peptide)
peptide: DWTCS[dR]DEYTWHCNYE
modifications: disulfide 4-13 (inferred); not fully specified (C-terminus); printed as D W T C S r D E Y T W H C N Y E
B2: SEQ ID NO: 179 (peptide)
peptide: DWTCS[dA]DEYTWHCNYE
modifications: disulfide 4-13 (inferred); not fully specified (C-terminus); printed as D W T C S a D E Y T W H C N Y E
B3: SEQ ID NO: 166 (peptide)
peptide: GQW[dT]CSGDEYTWHCNYE
modifications: disulfide 5-14 (inferred)
B4: SEQ ID NO: 174 (peptide)
peptide: GQWTCSGDEYTW[dH]CNYE
modifications: disulfide 5-14 (inferred); not fully specified (C-terminus)
B5: SEQ ID NO: 183 (peptide)
peptide: DWTCS[dL]DEYTWHCNYE
modifications: disulfide 4-13 (inferred); not fully specified (C-terminus); printed as D W T C S l D E Y T W H C N Y E
B6: SEQ ID NO: 182 (peptide)
peptide: DWTCS[dY]DEYTWHCNYE
modifications: disulfide 4-13 (inferred); not fully specified (C-terminus); printed as D W T C S y D E Y T W H C N Y E
B7: SEQ ID NO: 105 (peptide)
peptide: YHACYQ[NMeA]GCWIW
modifications: disulfide 4-9 (inferred)
B8: SEQ ID NO: 165 (peptide)
peptide: GQ[dW]TCSGDEYTWHCNYE
modifications: disulfide 5-14 (inferred)
B9: SEQ ID NO: 168 (peptide)
peptide: GQWTC[dS]GDEYTWHCNYE
modifications: disulfide 5-14 (inferred)
B10: SEQ ID NO: 161 (peptide)
peptide: YHACYQAGCW[dI]W
modifications: disulfide 4-9 (inferred)
B11: SEQ ID NO: 154 (peptide)
peptide: YH[dA]CYQAGCWIW
modifications: disulfide 4-9 (inferred)
B12: SEQ ID NO: 153 (peptide)
peptide: Y[dH]ACYQAGCWIW
modifications: disulfide 4-9 (inferred)
B13: SEQ ID NO: 173 (peptide)
peptide: GQWTCSGDEYT[dW]HCNYE
modifications: disulfide 5-14 (inferred); not fully specified (C-terminus)
B14: SEQ ID NO: 158 (peptide)
peptide: YHACYQ[dA]GCWIW
modifications: disulfide 4-9 (inferred)
B15: SEQ ID NO: 104 (peptide)
peptide: YHACYQA[Sar]CWIW
modifications: disulfide 4-9 (inferred)
B16: SEQ ID NO: 12 (peptide)
peptide: PMICHAPYVGKCNFL
modifications: disulfide 4-12 (inferred)
B17: SEQ ID NO: 176 (peptide)
peptide: GQWTCSGDEYTWHC[dN]YE
modifications: disulfide 5-14 (inferred); not fully specified (C-terminus)
B18: SEQ ID NO: 171 (peptide)
peptide: GQWTCSGDE[dY]TWHCNYE
modifications: disulfide 5-14 (inferred); not fully specified (C-terminus)
B19: SEQ ID NO: 169 (peptide)
peptide: GQWTCSG[dD]EYTWHCNYE
modifications: disulfide 5-14 (inferred); not fully specified (C-terminus)
B20: SEQ ID NO: 162 (peptide)
peptide: YHACYQAGCWI[dW]
modifications: disulfide 4-9 (inferred)
B21: SEQ ID NO: 160 (peptide)
peptide: YHACYQAGC[dW]IW
modifications: disulfide 4-9 (inferred)
B22: SEQ ID NO: 157 (peptide)
peptide: YHACY[dQ]AGCWIW
modifications: disulfide 4-9 (inferred)
B23: SEQ ID NO: 172 (peptide)
peptide: GQWTCSGDEY[dT]WHCNYE
modifications: disulfide 5-14 (inferred); not fully specified (C-terminus)
B24: SEQ ID NO: 170 (peptide)
peptide: GQWTCSGD[dE]YTWHCNYE
modifications: disulfide 5-14 (inferred); not fully specified (C-terminus)
B25: SEQ ID NO: 177 (peptide)
peptide: GQWTCSGDEYTWHCN[dY]E
modifications: disulfide 5-14 (inferred); not fully specified (C-terminus)
B26: SEQ ID NO: 156 (peptide)
peptide: YHAC[dY]QAGCWIW
modifications: disulfide 4-9 (inferred)
B27: SEQ ID NO: 180 (peptide)
peptide: DWTCS[dS]DEYTWHCNYE
modifications: disulfide 4-13 (inferred); not fully specified (C-terminus); printed as D W T C S s D E Y T W H C N Y E
B28: SEQ ID NO: 164 (peptide)
peptide: G[dQ]WTCSGDEYTWHCNYE
modifications: disulfide 5-14 (inferred)
B29: SEQ ID NO: 142 (peptide)
peptide: GQWTCSADEYTWHCNYE
modifications: disulfide 5-14 (inferred)
B30: SEQ ID NO: 107 (peptide)
peptide: YHACYQAGCYIW
modifications: disulfide 4-9 (inferred)
B31: SEQ ID NO: 137 (peptide)
peptide: YHACYQAGCWAW
modifications: disulfide 4-9 (inferred)

What follows are binders tested against human collagen type I (human) (UniProt P02452) (assay: dried collagen assay, 5 uM peptide).
Sequence of human collagen type I (human) (P02452 162-1218 limits assumed, chain 1 of 2): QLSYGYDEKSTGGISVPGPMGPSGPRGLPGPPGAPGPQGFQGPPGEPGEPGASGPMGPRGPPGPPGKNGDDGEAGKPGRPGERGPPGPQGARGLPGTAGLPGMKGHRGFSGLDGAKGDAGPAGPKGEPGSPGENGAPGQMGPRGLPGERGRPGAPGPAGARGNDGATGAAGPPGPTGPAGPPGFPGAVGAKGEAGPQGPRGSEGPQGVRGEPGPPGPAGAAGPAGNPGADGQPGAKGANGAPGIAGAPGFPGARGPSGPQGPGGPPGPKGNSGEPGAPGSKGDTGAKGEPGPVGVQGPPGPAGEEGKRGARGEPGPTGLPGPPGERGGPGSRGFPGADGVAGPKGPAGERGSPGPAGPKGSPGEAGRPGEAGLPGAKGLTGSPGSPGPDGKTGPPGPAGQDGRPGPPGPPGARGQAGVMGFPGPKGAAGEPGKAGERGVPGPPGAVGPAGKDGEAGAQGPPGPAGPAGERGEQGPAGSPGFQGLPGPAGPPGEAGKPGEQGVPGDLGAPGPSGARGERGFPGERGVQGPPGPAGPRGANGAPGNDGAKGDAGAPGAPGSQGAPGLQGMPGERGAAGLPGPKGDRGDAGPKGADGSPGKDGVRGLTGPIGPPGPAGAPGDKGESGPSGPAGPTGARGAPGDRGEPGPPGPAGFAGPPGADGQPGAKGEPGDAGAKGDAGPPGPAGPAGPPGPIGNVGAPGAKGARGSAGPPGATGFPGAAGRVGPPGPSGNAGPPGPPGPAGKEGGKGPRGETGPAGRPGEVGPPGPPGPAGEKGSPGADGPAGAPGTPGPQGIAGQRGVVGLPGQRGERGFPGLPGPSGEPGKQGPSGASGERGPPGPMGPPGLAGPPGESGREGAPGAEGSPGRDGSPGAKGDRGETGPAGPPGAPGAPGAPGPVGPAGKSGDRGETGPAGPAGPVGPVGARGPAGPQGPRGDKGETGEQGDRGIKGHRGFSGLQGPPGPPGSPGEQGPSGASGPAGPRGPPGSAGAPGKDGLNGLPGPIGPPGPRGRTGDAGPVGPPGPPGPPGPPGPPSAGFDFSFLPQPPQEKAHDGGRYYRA
Sequence of human collagen type I (human) (P08123 80-1119 limits assumed, chain 2 of 2, further chain): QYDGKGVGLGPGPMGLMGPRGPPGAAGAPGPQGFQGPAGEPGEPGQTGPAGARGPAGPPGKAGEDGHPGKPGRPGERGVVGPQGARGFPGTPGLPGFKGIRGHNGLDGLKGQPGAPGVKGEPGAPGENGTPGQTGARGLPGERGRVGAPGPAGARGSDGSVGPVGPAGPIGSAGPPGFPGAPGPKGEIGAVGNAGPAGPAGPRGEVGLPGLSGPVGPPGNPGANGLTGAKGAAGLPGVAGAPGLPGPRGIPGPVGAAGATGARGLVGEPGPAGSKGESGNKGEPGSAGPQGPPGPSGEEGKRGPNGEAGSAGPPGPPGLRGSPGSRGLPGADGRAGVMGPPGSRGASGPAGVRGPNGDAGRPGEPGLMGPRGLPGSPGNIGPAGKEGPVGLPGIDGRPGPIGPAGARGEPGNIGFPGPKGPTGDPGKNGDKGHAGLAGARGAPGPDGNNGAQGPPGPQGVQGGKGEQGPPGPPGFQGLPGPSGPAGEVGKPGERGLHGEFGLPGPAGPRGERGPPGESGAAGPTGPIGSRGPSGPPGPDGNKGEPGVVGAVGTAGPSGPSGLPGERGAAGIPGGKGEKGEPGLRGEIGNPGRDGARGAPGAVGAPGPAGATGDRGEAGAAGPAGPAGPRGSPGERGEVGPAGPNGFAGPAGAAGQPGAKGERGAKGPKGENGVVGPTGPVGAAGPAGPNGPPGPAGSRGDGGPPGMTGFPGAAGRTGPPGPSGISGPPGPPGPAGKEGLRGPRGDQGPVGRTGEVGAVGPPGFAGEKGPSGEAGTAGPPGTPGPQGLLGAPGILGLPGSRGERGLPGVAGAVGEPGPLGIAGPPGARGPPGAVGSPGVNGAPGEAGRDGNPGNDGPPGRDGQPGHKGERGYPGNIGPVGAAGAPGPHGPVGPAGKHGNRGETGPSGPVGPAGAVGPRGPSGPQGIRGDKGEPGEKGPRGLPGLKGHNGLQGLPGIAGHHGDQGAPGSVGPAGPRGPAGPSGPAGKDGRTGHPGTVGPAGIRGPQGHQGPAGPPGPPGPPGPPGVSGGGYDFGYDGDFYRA

Binder	% Collagen Binding, Dried Human [%]	Dried Human Collagen Binding [%]
B1	87	–
B2	81	–
B3	2	–
B4	5	–
B5	73	–
B6	89	–
B7	9	–
B8	2	–
B9	3	–
B10	8	–
B11	24	–
B12	0	–
B13	5	–
B14	56	–
B15	12	–
B16	–	7
B17	2	–
B18	13	–
B19	11	–
B20	18	–
B21	20	–
B22	37	–
B23	9	–
B24	49	–
B25	30	–
B26	38	–
B27	81	–
B28	46	–

The binders below were run against rat collagen type I (rat) (UniProt P02454) (assay: dried collagen assay, 5 uM peptide).
Sequence of rat collagen type I (rat) (P02454 152-1207, chain 1 of 2): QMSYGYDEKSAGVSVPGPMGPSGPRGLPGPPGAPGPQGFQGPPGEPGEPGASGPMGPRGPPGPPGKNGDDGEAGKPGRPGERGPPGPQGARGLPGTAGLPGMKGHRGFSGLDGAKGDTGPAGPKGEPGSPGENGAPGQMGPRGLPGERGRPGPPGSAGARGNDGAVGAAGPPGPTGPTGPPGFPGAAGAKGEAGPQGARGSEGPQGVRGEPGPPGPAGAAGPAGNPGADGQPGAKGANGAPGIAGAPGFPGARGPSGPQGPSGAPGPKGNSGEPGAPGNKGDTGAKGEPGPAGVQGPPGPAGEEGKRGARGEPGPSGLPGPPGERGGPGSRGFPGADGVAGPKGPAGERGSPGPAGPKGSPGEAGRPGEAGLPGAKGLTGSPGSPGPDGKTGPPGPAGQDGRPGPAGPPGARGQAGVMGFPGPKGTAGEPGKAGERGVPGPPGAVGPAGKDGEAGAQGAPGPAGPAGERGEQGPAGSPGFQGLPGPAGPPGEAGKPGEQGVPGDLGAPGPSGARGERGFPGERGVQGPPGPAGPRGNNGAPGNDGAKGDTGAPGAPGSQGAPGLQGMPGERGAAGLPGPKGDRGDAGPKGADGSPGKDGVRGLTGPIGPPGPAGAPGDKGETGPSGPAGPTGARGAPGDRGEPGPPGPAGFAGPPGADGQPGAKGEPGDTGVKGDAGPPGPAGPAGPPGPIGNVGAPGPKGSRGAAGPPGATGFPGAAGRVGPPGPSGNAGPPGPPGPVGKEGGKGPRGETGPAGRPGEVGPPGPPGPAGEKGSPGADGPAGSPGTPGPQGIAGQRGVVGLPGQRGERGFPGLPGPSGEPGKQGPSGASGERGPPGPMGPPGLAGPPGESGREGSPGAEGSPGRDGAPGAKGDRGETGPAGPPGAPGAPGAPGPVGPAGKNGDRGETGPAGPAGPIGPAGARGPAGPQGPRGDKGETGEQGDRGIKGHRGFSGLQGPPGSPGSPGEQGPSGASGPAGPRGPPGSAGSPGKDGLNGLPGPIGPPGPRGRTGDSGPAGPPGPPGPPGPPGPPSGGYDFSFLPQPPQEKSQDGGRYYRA
Sequence of rat collagen type I (rat) (P02466 86-1125, chain 2 of 2, further chain): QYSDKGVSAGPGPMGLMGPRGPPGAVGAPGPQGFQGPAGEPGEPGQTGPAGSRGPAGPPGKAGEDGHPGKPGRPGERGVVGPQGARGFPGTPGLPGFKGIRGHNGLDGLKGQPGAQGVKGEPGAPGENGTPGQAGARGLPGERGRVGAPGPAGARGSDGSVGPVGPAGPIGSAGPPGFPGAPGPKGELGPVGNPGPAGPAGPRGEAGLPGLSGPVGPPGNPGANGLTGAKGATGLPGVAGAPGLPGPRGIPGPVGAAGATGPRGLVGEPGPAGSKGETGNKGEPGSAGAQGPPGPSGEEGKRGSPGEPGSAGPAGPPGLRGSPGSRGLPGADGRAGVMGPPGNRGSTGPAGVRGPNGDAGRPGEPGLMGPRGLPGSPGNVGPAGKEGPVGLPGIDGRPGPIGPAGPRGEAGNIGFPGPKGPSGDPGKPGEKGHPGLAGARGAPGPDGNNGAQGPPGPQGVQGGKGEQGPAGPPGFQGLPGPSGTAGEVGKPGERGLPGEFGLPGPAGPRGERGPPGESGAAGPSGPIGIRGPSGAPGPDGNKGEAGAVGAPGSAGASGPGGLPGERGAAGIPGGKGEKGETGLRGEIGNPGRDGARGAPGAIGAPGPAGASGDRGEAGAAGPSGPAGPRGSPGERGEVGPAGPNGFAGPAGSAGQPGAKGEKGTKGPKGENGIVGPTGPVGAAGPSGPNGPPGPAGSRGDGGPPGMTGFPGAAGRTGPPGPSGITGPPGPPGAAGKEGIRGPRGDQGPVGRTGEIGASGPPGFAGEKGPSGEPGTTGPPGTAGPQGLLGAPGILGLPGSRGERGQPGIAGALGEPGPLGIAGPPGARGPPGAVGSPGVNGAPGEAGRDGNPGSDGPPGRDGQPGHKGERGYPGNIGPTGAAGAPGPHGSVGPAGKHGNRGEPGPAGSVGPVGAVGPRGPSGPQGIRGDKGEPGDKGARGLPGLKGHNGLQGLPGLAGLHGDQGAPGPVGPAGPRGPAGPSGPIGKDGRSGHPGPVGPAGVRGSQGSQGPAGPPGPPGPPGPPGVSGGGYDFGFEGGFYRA

Binder	% Collagen Binding, Dried Rat [%]
B29	6
B1	86
B2	75
B3	3
B30	6
B4	0
B5	63
B6	86
B7	23
B8	4
B9	2
B10	10
B11	21
B12	0
B13	4
B14	66
B15	19
B17	2
B18	6
B19	4
B20	14
B21	12
B22	35
B23	8
B24	35
B31	7
B25	27
B26	48
B27	72
B28	31
